Experimental data reported in PMC12525494.

What was measured:
[1] = target: ST2 receptor on Raw 264.7 cells (mouse (endogenous in Raw 264.7)) (UniProt P14719)
[2] = target: ST2 receptor on Raw 264.7 cells (mouse (endogenous in Raw 264.7)) (UniProt P14719); remark: listed apart in the source

UniProt P14719, sequence (P14719 27-567): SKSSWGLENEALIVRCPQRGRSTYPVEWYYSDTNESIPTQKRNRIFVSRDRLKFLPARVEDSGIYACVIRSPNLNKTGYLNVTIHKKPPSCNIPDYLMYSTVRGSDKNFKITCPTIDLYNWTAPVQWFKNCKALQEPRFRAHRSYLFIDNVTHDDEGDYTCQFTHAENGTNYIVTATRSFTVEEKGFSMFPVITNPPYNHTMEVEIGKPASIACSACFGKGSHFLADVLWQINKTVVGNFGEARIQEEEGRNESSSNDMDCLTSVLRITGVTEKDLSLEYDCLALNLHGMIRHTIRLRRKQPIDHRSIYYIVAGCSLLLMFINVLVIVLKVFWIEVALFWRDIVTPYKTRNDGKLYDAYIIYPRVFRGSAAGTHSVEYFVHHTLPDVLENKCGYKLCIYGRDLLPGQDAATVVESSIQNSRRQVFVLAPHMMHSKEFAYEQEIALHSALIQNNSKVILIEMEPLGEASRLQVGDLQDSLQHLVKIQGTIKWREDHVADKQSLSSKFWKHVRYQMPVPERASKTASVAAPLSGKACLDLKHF

immunotoxin IL-33αS (murine IL-33 fused to the ribotoxin α-sarcin) (from UniProt P00655 28-177)
Viability (%) on Raw 264.7 cell line, 1 µM protein, 72 h [1]: 40%
MTT viability of Raw 264.7 cells, IC50 at 72 h [2]: 300 nM
